Measurements taken from patent US7589167B2, “ZA loops of bromodomains” (J. David Gladstone Institutes, priority 2000, dated 2009).
“Also recorded” adds a separate entry of the source. Read-outs that look alike come from different tables or passages of the source. Where no end group is shown, it is not given here.

Key:
[1] = target: T1, P/CAF bromodomain (Homo sapiens, UniProt Q92831, P804A/P805A); assay: NMR ligand titration (2D 15N-/13C-HSQC chemical shift changes) of the P/CAF bromodomain; assay type: binding; conditions: for binding to the P/CAF bromodomain (qualitative): NMR titration, chemical shift changes
T1 construct: poly-His (N, cleaved yes); made in house; host or cells: Escherichia coli BL21(DE3)
T1 sequence (Q92831 719-832 P804A/P805A): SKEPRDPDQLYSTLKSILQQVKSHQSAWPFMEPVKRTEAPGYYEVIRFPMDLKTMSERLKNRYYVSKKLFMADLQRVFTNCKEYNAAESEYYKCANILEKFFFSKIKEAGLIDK
Description: (§1) NMR spectroscopy: All NMR spectra were acquired at 30° C. on a Bruker DRX600 or DRX500 spectrometer. The backbone assignments of the ^1H, ^13C, and ^15N resonances were achieved using deuterium-decoupled triple-resonance experiments of HNCACB and HN(CO)CACB [Yamazaki et al., J. Am. Chem. Soc. 116:11655-11666 (1994)] recorded using the uniformly ^15N/^13C-labeled and fractionally deuterated protein. The side-chain atoms were assigned from 3D HCCH-TOCSY [Clore and Gronenbom, Meth. Enzymol. 239:249-363 (1994)] and (H)C(CO)NH-TOCSY [Logan et al., J. Biolmol. NMR 3:225-231 (1993)] data collected on the uniformly ^15N/^13C-labeled protein. Stereospecific assignments of methyl groups of the Val and Leu residues were obtained using a fractionally ^13C-labeled sample [Neri et al., Biochemistry 28:7510-7516 (1989)]. The NOE-derived distance restraints were obtained from ^15N- or ^13C-edited 3D NOESY spectra. φ-angle restraints were determined based on the ^3JHn,Hα coupling constants measured in a 3D H spectrum [Clore and Gronenbom, Meth. Enzymol. 239:249-363 (1994)]. Slowly exchanging amide protons were identified from a series of 2D ^15N-HSQC spectra recorded after the H2O buffer was changed to a ^2H2O buffer. The intermolecular NOEs used in defining the structure of the bromodomain/Ac-histamine complex were detected in ^13C-edited (F1), ^13C/^15N-filtered (F3) 3D NOESY spectrum [Clore and Gronenbom, Meth. Enzymol. 239:249-363 (1994)]. All NMR spectra were processed with the NMRPipe/NMRDraw programs and analyzed using NMRView [Johnson and Blevins, J. Biomol., NMR 4:603-614 (1994)].
(§2) Ligand titration: Ligand titration experiments were performed by recording a series of 2D ^15N—- and ^13C-HSQC spectra on the uniformly ^15N-, and ^15N/^13C-labelled bromodomain (˜0.3 mM), respectively, in the presence of different amounts of ligand concentration ranging from 0 to approximately 2.0 mM. The protein sample and the stock solutions of the ligands were all prepared in the same aqueous buffer containing 100 mM phosphate and 5 mM perdeuterated DTT at pH 6.5.
as §1, with “the uniformly ^15N/^13C-labelled and fractionally” for “the uniformly ^15N/^13C-labeled and fractionally”, “of the valine and leucine” for “of the Val and Leu”, “valine and leucine residues were” for “Val and Leu residues were”, “3D NOESY spectra [Clore and Gronenbom, Meth. Enzymol. 239:249-363 (1994)]. φ-angle restraints” for “3D NOESY spectra. φ-angle restraints”, “on the ^3JHN,H coupling constants” for “on the ^3JHn,Hα coupling constants”, “a 3D HNHA spectrum [Clore” for “a 3D H spectrum [Clore”
Ligand titration experiments were performed by recording a series of 2D ^15N-HSQC spectra on the uniformly ^15N-labelled bromodomain (˜0.3 mM), respectively, in the presence of different amounts of ligand concentration ranging from 0 to ˜2.0 mM.

[2] = test system: Tat transactivation activity; assay: Superinduction of Tat transactivation activity by P/CAF; assay type: cell-based, HIV-1
Source text: FIG. 7 is a bar graph of the measurement of superinduction of Tat transactivation activity by P/CAF. Tat-KK is the wild type Tat protein, and Tat-RR is the double mutant Tat carrying lysine to arginine mutations at K50 and K51 positions.

[3] = target: T2, P/CAF (Homo sapiens, UniProt Q92831); assay: Western blot assay to detect P/CAF interaction with the Tat protein in cells; assay type: cell-based; conditions: FLAG-Tat, HA-P/CAF
T2 construct: HA; expressed in transfected cells
T2 sequence (Q92831 whole entry): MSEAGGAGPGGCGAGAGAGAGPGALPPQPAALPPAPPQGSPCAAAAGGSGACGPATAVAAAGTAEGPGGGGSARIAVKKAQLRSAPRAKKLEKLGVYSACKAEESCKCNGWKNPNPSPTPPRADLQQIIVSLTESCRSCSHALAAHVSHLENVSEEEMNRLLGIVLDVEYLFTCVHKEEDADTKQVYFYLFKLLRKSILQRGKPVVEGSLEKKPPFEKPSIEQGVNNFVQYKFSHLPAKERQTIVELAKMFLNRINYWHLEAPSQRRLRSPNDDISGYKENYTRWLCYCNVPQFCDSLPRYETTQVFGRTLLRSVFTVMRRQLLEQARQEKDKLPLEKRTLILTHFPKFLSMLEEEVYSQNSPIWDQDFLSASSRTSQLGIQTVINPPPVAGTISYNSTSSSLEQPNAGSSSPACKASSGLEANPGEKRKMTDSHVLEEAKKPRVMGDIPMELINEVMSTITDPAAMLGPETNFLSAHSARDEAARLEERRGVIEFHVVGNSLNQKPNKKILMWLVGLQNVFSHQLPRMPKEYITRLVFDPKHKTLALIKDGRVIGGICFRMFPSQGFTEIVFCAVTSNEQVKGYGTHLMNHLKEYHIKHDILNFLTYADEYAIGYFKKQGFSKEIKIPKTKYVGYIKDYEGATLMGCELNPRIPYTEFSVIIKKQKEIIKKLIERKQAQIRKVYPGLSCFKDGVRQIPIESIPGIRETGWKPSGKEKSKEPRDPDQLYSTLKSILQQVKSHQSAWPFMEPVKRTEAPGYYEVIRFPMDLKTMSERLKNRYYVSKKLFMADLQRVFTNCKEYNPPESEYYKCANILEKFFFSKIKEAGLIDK
Source text: FIGS. 8A-8B show a western blot assay to detect P/CAF interaction with the Tat protein. Note that the protein-protein interaction was only observed with the wild type Tat but not with the Tat K50R/K51R mutant protein. The FLAG was joined to the Tat peptide, whereas the HA-tag was joined to P/CAF.

[4] = Structural integrity of P/CAF bromodomain mutants by 15N-HSQC spectra; assay type: physicochemical; set-up: key: ++++: as stable as the wild-type; +++: mildly destabilized; ++: moderately destabilized; −: completely unfolded; conditions: relative to wild-type
Description: (§3) Site-directed mutagenesis: Mutant proteins were prepared using the QuickChange site-directed mutagenesis kit (Stratagene). The presence of appropriate mutations was confirmed by DNA sequencing.

[5] = test system: lysine-acetylated H4 peptide; assay: NMR titration of wild-type and mutant P/CAF bromodomain proteins with the H4 AcK peptide; assay type: binding; conditions: for binding of bromodomain mutants to the lysine-acetylated H4 peptide (qualitative): NMR titration; for Kd: read-out: H4 AcK-Peptide Binding KD
Description: as §3, §2

[6] = test system: biotinylated and lysine-acetylated Tat peptide; assay: Mutational analysis: binding of P/CAF bromodomain mutant proteins to immobilized lysine-acetylated Tat peptide; set-up: species or system HIV-1; conditions: peptide immobilized onto streptavidin agarose
Description: Site directed mutagenesis. Site directed mutagenesis was performed on selected residues of P/CAF Bromodomain using quick-change kit (Stratagene). The mutants were confirmed by sequencing and proteins were expressed and purified as above.
Peptide binding assay. Equal amount (10 μM) of GST, GST-P/CAF bromodomain and its mutant proteins, as well as various GST-fusion bromodomains from CBP and TIF1β were incubated for at least two hours at room temperature with the N-terminal biotinylated and lysine-acetylated Tat peptide (50 μM) in a 50 mM Tris buffer of pH 7.5, containing 50 mM NaCl, 0.1% BSA and 1 mMDTT. Streptavidin agarose (10 μL) was added to mixture and the beads were washed twice in the Tris buffer with 500 mM NaCl and 0.1% NP-40. Proteins were eluted from the argarose beads in SDS buffer and separated on a 14% SDS-PAGE. The resolved proteins were transferred onto nitrocellulose membrane (Pharmacia), and the membrane was blocked overnight with 5% non-fat milk in washing buffer of 20 mM Tris, pH 7.5, plus 150 mM NaCl and 0.1% Tween-20 at 4° C. Western blotting was performed with anti-GST antibody (Sigma) and goat anti-rabbit IgG conjugated with horseradish-peroxidase (Promega) and developed by chemiluminescence. Peptide competition experiments were performed by incubating various non-biotinylated and mutant Tat peptide with the P/CAF bromodomain and the biotinylated and wild type Tat peptide. The molar ratio of the wild type and mutant Tat peptides in the mixture were kept at 1:2. The binding results were analyses by using the procedure as described above.
To identify the amino acid residues of the P/CAF bromodomain that are important for complex formation, mutant proteins were tested for binding to the biotinylated and lysine-acetylated Tat peptide that is immobilized onto streptavidin agarose (FIG. 10A). […] The results from the mutational analysis agree with the observations of intermolecular NOEs in the NMR spectra.

[7] = estimated from amide chemical shift changes in 15N-HSQC vs ligand concentration

With `CC(=O)NCCc1cnc[nH]1` [acetyl-histamine] the “binding to the P/CAF bromodomain (qualitative)” value (shortened to “binding to the P/CAF bromodomain”) [1] was “chemical shift perturbations with similar concentration dependence and does”.

In the case of “SYGRK(Ac)KRRQRC [Tat AcK50 peptide, SYGR-AcK-KRRQRC]”, the Kd [1] is reported as about 20 µM.

With “QSTSRHK-AcK-LMFKTE (QSTSRHKXLMFKTE; acetyl-lysine; synthetic bromodomain peptide)” the “binding to the P/CAF bromodomain” value [1] was “bind to the P/CAF bromodomain”.

In the case of ISYGR-AcK-KRRQRR, the “binding to the P/CAF bromodomain” value [1] is reported as “bind to the P/CAF bromodomain”.

`CC(=O)NCCCC[C@H](NC(=O)CNC(=O)CNC(=O)[C@H](CCCCN)NC(=O)CNC(=O)[C@H](CCCNC(=N)N)NC(=O)CNC(=O)[C@@H](N)CO)C(=O)NCC(=O)N[C@@H](CC(C)C)C(=O)NCC(=O)N[C@@H](CCCCN)C(=O)O` [SGRGKGG-AcK-GLGK] showed a Kd ([1]; estimated from NMR titration, 15N-HSQC, pH 6.5, 30° C., read-out: dissociation constant (KD)) of 346 ± 54 µM.

In the case of `CC(=O)N[C@@H](Cc1c[nH]cn1)C(=O)O` [acetyl-histidine], the “binding to the P/CAF bromodomain” value [1] is reported as “did not bind; also recorded: does not to bind”.

In the case of “ARKSTGG-AcK-APRKQL (ARKSTGGXAPRKQL; acetyl-lysine; synthetic bromodomain peptide)”, the “binding to the P/CAF bromodomain” value [1] is reported as “bind to the P/CAF bromodomain”.

In the case of `CC(=O)N[C@@H](CCCCN)C(=O)O` [acetyl-lysine], the “binding to the P/CAF bromodomain” value [1] is reported as “did not bind; also recorded: does not appear to bind”.

B1: Tat: wild type HIV-1 Tat protein (SEQ ID NO:45) (protein)
chain: MEPVDPRLEPWKHPGSQPKTASNNCYCKRCCLHCQVCFTKKGLGISYGRKKRRQRRRAPQDSKTHQVSLSKQPASQPRGDPTGPKESKKKVERETETDPED
modifications: Human immunodeficiency virus type 1; Tat protein
For B1, the “increase of Tat transactivation activity upon P/CAF stimulation” value [2] was at most 30 fold and the “specific interaction with P/CAF in cells” value [3] was “detected”.

B2: Tyr809Ala: P/CAF bromodomain point mutant, Tyr809 to Ala (protein)
chain: SKEPRDPDQLYSTLKSILQQVKSHQSAWPFMEPVKRTEAPGYYEVIRFPMDLKTMSERLKNRYYVSKKLFMADLQRVFTNCKEYNAAESEAYKCANILEKFFFSKIKEAGLIDK
In the case of B2, the “Structural Integrity” value [4] is reported as “++++”, the “binding of bromodomain mutants to the lysine-acetylated H4 peptide (qualitative)” value (“binding of bromodomain mutants” for short) [5] is reported as “completely abrogated” and the “H4 AcK-Peptide Binding KD (μM)” value [5, 7] is reported as “No Binding ^c”. The “binding of alanine point mutants to the Tat AcK50 peptide (qualitative)” value (“binding of alanine point mutants” below) [6] was “nearly complete loss or significantly reduced binding”.

B3: Tyr802Ala: P/CAF bromodomain point mutant, Tyr802 to Ala (protein)
chain: SKEPRDPDQLYSTLKSILQQVKSHQSAWPFMEPVKRTEAPGYYEVIRFPMDLKTMSERLKNRYYVSKKLFMADLQRVFTNCKEANAAESEYYKCANILEKFFFSKIKEAGLIDK
In the case of B3, the “Structural Integrity” value [4] is reported as “+++”, the “binding of bromodomain mutants” value [5] is reported as “significantly reduced ligand binding affinity” and the Kd [5, 7] is reported as over 10000 µM. For the same molecule, the “binding of alanine point mutants” value [6] was “nearly complete loss or significantly reduced binding”.

B4: Tyr760Ala: P/CAF bromodomain point mutant, Tyr760 to Ala (protein)
chain: SKEPRDPDQLYSTLKSILQQVKSHQSAWPFMEPVKRTEAPGAYEVIRFPMDLKTMSERLKNRYYVSKKLFMADLQRVFTNCKEYNAAESEYYKCANILEKFFFSKIKEAGLIDK
In the case of B4, the “Structural Integrity” value [4] is reported as “+++”, the “binding of bromodomain mutants” value [5] is reported as “significantly reduced ligand binding affinity” and the Kd [5, 7] is reported as over 10000 µM.

B5: Val752Ala (protein)
chain: SKEPRDPDQLYSTLKSILQQVKSHQSAWPFMEPAKRTEAPGYYEVIRFPMDLKTMSERLKNRYYVSKKLFMADLQRVFTNCKEYNAAESEYYKCANILEKFFFSKIKEAGLIDK
In the case of B5, the “Structural Integrity” value [4] is reported as “++”, the “binding of bromodomain mutants” value [5] is reported as “significantly reduced ligand binding affinity” and the Kd [5, 7] is reported as over 10000 µM. For the same molecule, the “binding of alanine point mutants” value [6] was “nearly complete loss or significantly reduced binding”.

B6: Wild-Type: wild-type bromodomain of P/CAF (residues 719-832 of SEQ ID NO:2) (protein, listed as Homo sapiens)
chain: SKEPRDPDQLYSTLKSILQQVKSHQSAWPFMEPVKRTEAPGYYEVIRFPMDLKTMSERLKNRYYVSKKLFMADLQRVFTNCKEYNAAESEYYKCANILEKFFFSKIKEAGLIDK
For B6, the “Structural Integrity” value [4] was “++++” and the Kd [5, 7] was 346 ± 54 µM.
